Assay results: paper PMC10269738

Tests used:
[1] = target: cell-surface annexin A2 of Vero cells (African green monkey (endogenous in Vero))
[2] = target: adhesion G protein-coupled receptor Latrophilin-2 of Vero cells (African green monkey (endogenous in Vero))

## avian reovirus (ARV) σC protein, strain S1133 (natural protein)
[1]
  virus titer in Vero cells treated with anti-AnxA2 monoclonal antibody, against untreated samples (log units lower): 2.5
[2]
  virus titer in Vero cells treated with anti-ADGRL2 monoclonal antibody, against untreated samples (log units lower): 3
